Patent publication US20220064329A1 (Novo Nordisk, published 2022)
Residue numbers refer to the chain shown, from its start. Numbers in names are those of the source.

T1: recombinant human activated Factor VII (FVIIa) (human, UniProt P08709 61-212; P08709 213-466, ten glutamate residues of the Gla domain may be gamma-carboxylated)
T1 construct: chains tethered by a disulfide bond; also called Factor VIIa; rFVIIa
T1 sequence 1: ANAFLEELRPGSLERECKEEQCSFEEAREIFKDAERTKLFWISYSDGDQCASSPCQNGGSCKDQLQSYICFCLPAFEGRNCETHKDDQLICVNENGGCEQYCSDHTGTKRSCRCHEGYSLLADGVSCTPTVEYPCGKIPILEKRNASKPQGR
T1 sequence 2: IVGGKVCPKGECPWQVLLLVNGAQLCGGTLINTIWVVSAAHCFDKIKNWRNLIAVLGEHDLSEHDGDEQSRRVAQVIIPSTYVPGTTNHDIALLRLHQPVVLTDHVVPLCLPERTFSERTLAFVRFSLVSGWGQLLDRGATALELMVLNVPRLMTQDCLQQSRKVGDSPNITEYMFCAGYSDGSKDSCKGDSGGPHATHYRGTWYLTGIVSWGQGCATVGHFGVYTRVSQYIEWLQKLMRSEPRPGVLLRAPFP

B1: VH SEQ ID NO 530 / VL SEQ ID NO 462 (antibody, IgG4, V domains shown)
VH: QVQLQESGPGLVEPSQTLSLTCTVSGYSISSDSAWSWIRQPPGKGLEWIGYIQYSGSTNYNPSLKSRVTISRDTSKNQFSLKLSSVTAADTAVYYCARSVNYYGNSFAVGYWGQGTLVTVSS
VL: EIVLTQSPATLSLSPGERATLSCRASQGVSDYLHWYQQKPGQAPRLLIKYASQPATGIPARFSGSGSGTDFTLTISSLEPEDFAVYYCQNGHSFPLTFGAGTKLEIK
notes: humanized 11F2; IgG4 S228P/kappa
B2: VH SEQ ID NO 546 / VL SEQ ID NO 382 (antibody, IgG4, V domains shown)
VH: B1 VH with S30T, G45K, L117S
VL: B1 VL with V29L, Q42E, A100Q
notes: as for B1
B3: VH SEQ ID NO 538 / VL SEQ ID NO 342 (antibody, IgG4, V domains shown)
VH: B1 VH with S30T, G45K
VL: B1 VL with V29I, A51T, T69R, I106L
notes: as for B1
B4: VH SEQ ID NO 546 / VL SEQ ID NO 358 (antibody, IgG4, V domains shown)
VH: B1 VH with S30T, G45K, L117S
VL: B1 VL with V29I, A51T, A100Q
notes: as for B1
B5: VH SEQ ID NO 538 / VL SEQ ID NO 334 (antibody, IgG4, V domains shown)
VH: B1 VH with S30T, G45K
VL: B1 VL with V29I, A100Q
notes: as for B1
B6: VH SEQ ID NO 538 / VL SEQ ID NO 502 (antibody, IgG4, V domains shown)
VH: B1 VH with S30T, G45K
VL: B1 VL with A51T, A100Q
notes: as for B1
B7: VH SEQ ID NO 546 / VL SEQ ID NO 350 (antibody, IgG4, V domains shown)
VH: B1 VH with S30T, G45K, L117S
VL: B1 VL with V29I, A51T, I106L
notes: as for B1
B8: VH SEQ ID NO 546 / VL SEQ ID NO 406 (antibody, IgG4, V domains shown)
VH: B1 VH with S30T, G45K, L117S
VL: B1 VL with H34A
notes: as for B1
B9: VH SEQ ID NO 538 / VL SEQ ID NO 438 (antibody, IgG4, V domains shown)
VH: B1 VH with S30T, G45K
VL: B1 VL with H34A, F83V, A100Q
notes: as for B1
B10: VH SEQ ID NO 538 / VL SEQ ID NO 318 (antibody, IgG4, V domains shown)
VH: B1 VH with S30T, G45K
VL: B1 VL with V29I, Q42E, A51T, A100Q
notes: as for B1
B11: VH SEQ ID NO 530 / VL SEQ ID NO 470 (antibody, IgG4, V domains shown)
VH: B1 VH
VL: B1 VL with A100Q
notes: as for B1
B12: VH SEQ ID NO 538 / VL SEQ ID NO 494 (antibody, IgG4, V domains shown)
VH: B1 VH with S30T, G45K
VL: B1 VL with F83V, A100Q
notes: as for B1
B13: VH SEQ ID NO 546 / VL SEQ ID NO 310 (antibody, IgG4, V domains shown)
VH: B1 VH with S30T, G45K, L117S
VL: B1 VL with V29I, H34A, A100Q
notes: as for B1
B14: VH SEQ ID NO 546 / VL SEQ ID NO 398 (antibody, IgG4, V domains shown)
VH: B1 VH with S30T, G45K, L117S
VL: B1 VL with H34A, Q42E, A51T, A100Q
notes: as for B1
B15: VH SEQ ID NO 538 / VL SEQ ID NO 430 (antibody, IgG4, V domains shown)
VH: B1 VH with S30T, G45K
VL: B1 VL with H34A, A84G, A100Q
notes: as for B1
B16: VH SEQ ID NO 538 / VL SEQ ID NO 414 (antibody, IgG4, V domains shown)
VH: B1 VH with S30T, G45K
VL: B1 VL with H34A, A100Q
notes: as for B1
B17: VH SEQ ID NO 538 / VL SEQ ID NO 422 (antibody, IgG4, V domains shown)
VH: B1 VH with S30T, G45K
VL: B1 VL with H34A, N90Q, A100Q
notes: as for B1
B18: VH SEQ ID NO 538 / VL SEQ ID NO 462 (antibody, IgG4, V domains shown)
VH: B1 VH with S30T, G45K
VL: B1 VL
notes: as for B1
B19: VH SEQ ID NO 538 / VL SEQ ID NO 486 (antibody, IgG4, V domains shown)
VH: B1 VH with S30T, G45K
VL: B1 VL with A84G, A100Q
notes: as for B1
B20: VH SEQ ID NO 538 / VL SEQ ID NO 366 (antibody, IgG4, V domains shown)
VH: B1 VH with S30T, G45K
VL: B1 VL with V29L, H34A, Q42E, A100Q
notes: as for B1
B21: VH SEQ ID NO 546 / VL SEQ ID NO 374 (antibody, IgG4, V domains shown)
VH: B1 VH with S30T, G45K, L117S
VL: B1 VL with V29L, H34A, A51T, A100Q
notes: as for B1
B22: VH SEQ ID NO 530 / VL SEQ ID NO 502 (antibody, IgG4, V domains shown)
VH: B1 VH
VL: B1 VL with A51T, A100Q
notes: as for B1

Biological target: T1, recombinant human activated Factor VII …
Experiment: BLI (Fortebio)

Row | Binder | Kd [nM]
1 | B1 | 1
2 | B2 | 1.3
3 | B3 | 1.2
4 | B4 | 0.99
5 | B5 | 0.97
6 | B6 | 0.88
7 | B7 | 0.96
8 | B8 | 6.7
9 | B9 | 8.3
10 | B10 | 0.64
11 | B11 | 0.96
12 | B12 | 1.1
13 | B13 | 3.2
14 | B14 | 11
15 | B15 | 8.3
16 | B16 | 6.9
17 | B17 | 21
18 | B18 | 1.3
19 | B19 | 1
20 | B20 | 6.2
21 | B21 | 6.8
22 | B22 | 0.94
